Data reported in the supplement of paper PMC7877785.
± gives the uncertainty stated by the source.

Assay: self-splicing fitness, log relative to wild type (ln ratio); higher = more splicing; Tetrahymena group I intron in knt gene, E. coli kanamycin selection, DiMSum; sequences stand for … in CUCUCU…GGAGGGAAAAGUUAUCAGGCAUGCACCUGGUAGCUAGUCUUUAAACCAAUAGAUUGCAUCGGUUUAAAAGGCAAGACCGUCAAAUUGCGGGAAAGGGGUCAACAGCCGUUCAGUACCAAGUCUCAGGGGAAACUUUGAGAUGGCCUUGCAAAGGGUAUGGUAAUAAGCUGACGGACAUGGUCCUAACCACGCAGCCAAGUCCUAAGUCAACAGAUCUUCUGUUGAUAUGGAUGCAGUUCACAGACUAAAUGUCGGUCGGGGAAGAUGUAUUCUUCUCAUAAGAUAUAGUCGGACCUCUCCUUAAUGGGAGCUAGCGGAUGAAGUGAUGCAACACUGGAGCCGCUGGGAACUAAUUUGUAUGCGAAAGUAUAUUGAUUAGUUUUGGAGUACUCGUGGUCG
How it was run: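 The eight P1ex-region nucleotides of an intron in the knt kanamycin-resistance gene on pET-22b(+) were all randomised and the library put into E. coli BL21(DE3). Six replicate transformations were grown overnight at 37°C or 30°C on LB agar with or without 25 μg/mL kanamycin, together with 100 μg/mL carbenicillin, 50 μM IPTG and 0.2% rhamnose. Colonies were pooled and amplicon-sequenced on an Illumina HiSeq 2500. Fitness from DiMSum is the error-weighted combination of wild-type-normalised replicate fold changes, kanamycin over none.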

## CAUGAGCAAUAUUACGUCGC
30 °C
  self-splicing fitness (ln): -3.59 ± 0.29
37 °C
  self-splicing fitness (ln): -2.13 ± 0.42

## UUUAAGCAAUAUUACGAACA
30 °C
  self-splicing fitness (ln): -0.6 ± 0.17
37 °C
  self-splicing fitness (ln): -0.353 ± 0.19

## AAUCAGCAAUAUUACGUCGG
30 °C
  self-splicing fitness (ln): -1.88 ± 0.1
37 °C
  self-splicing fitness (ln): -1.02 ± 0.14

## UAGUAGCAAUAUUACGGCAU
30 °C
  self-splicing fitness (ln): -2.2 ± 0.15
37 °C
  self-splicing fitness (ln): -0.67 ± 0.16

## UAUUAGCAAUAUUACGGCAU
30 °C
  self-splicing fitness (ln): -1.99 ± 0.16
37 °C
  self-splicing fitness (ln): -0.541 ± 0.12

## CAGCAGCAAUAUUACGGCUG
30 °C
  self-splicing fitness (ln): -4.48 ± 0.25
37 °C
  self-splicing fitness (ln): -1.82 ± 0.19

## UUGUAGCAAUAUUACGUUGU
30 °C
  self-splicing fitness (ln): -3.77 ± 0.27
37 °C
  self-splicing fitness (ln): -2.81 ± 0.24

## GUGUAGCAAUAUUACGCAUC
37 °C
  self-splicing fitness (ln): -0.977 ± 0.26

## ACAAAGCAAUAUUACGAGUU
30 °C
  self-splicing fitness (ln): -3.3 ± 0.099
37 °C
  self-splicing fitness (ln): -1.68 ± 0.096

## GCCAAGCAAUAUUACGUGCG
30 °C
  self-splicing fitness (ln): -2 ± 0.089
37 °C
  self-splicing fitness (ln): -0.737 ± 0.1

## AGAGAGCAAUAUUACGUUAC
30 °C
  self-splicing fitness (ln): -2.67 ± 0.22
37 °C
  self-splicing fitness (ln): -2.19 ± 0.42

## CCGAAGCAAUAUUACGAUAU
30 °C
  self-splicing fitness (ln): -4.3 ± 0.35
37 °C
  self-splicing fitness (ln): -3.21 ± 0.26

## CGCUAGCAAUAUUACGCACA
30 °C
  self-splicing fitness (ln): -1.37 ± 0.13
37 °C
  self-splicing fitness (ln): -0.405 ± 0.1

## GUCCAGCAAUAUUACGGGGA
30 °C
  self-splicing fitness (ln): -2.41 ± 0.13
37 °C
  self-splicing fitness (ln): -1.37 ± 0.12

## GCCGAGCAAUAUUACGGGGU
30 °C
  self-splicing fitness (ln): -4.35 ± 0.33
37 °C
  self-splicing fitness (ln): -2.56 ± 0.2

## ACGCAGCAAUAUUACGUUCG
30 °C
  self-splicing fitness (ln): -1.24 ± 0.059
37 °C
  self-splicing fitness (ln): -0.442 ± 0.068

## AUAUAGCAAUAUUACGCGUC
30 °C
  self-splicing fitness (ln): -3.3 ± 0.26
37 °C
  self-splicing fitness (ln): -2.26 ± 0.28

## UCUAAGCAAUAUUACGCAGG
30 °C
  self-splicing fitness (ln): -2.92 ± 0.23
37 °C
  self-splicing fitness (ln): -2.36 ± 0.41

## GAAGAGCAAUAUUACGUACU
30 °C
  self-splicing fitness (ln): -2.11 ± 0.15
37 °C
  self-splicing fitness (ln): -0.163 ± 0.13

## UUCAAGCAAUAUUACGGCAG
30 °C
  self-splicing fitness (ln): -1.05 ± 0.077
37 °C
  self-splicing fitness (ln): -0.45 ± 0.11

## ACAGAGCAAUAUUACGGGCA
30 °C
  self-splicing fitness (ln): -2.58 ± 0.19
37 °C
  self-splicing fitness (ln): -0.773 ± 0.15

## UCAGAGCAAUAUUACGUAAA
30 °C
  self-splicing fitness (ln): -2.65 ± 0.15
37 °C
  self-splicing fitness (ln): -1.95 ± 0.25

## UGCCAGCAAUAUUACGUACU
30 °C
  self-splicing fitness (ln): 0.158 ± 0.14
37 °C
  self-splicing fitness (ln): -1.19 ± 0.19

## AGGAAGCAAUAUUACGAUCA
30 °C
  self-splicing fitness (ln): -0.344 ± 0.091
37 °C
  self-splicing fitness (ln): -0.31 ± 0.09

## CAGCAGCAAUAUUACGCGAA
30 °C
  self-splicing fitness (ln): -2.55 ± 0.13
37 °C
  self-splicing fitness (ln): -1.82 ± 0.15

## AGAUAGCAAUAUUACGUACA
30 °C
  self-splicing fitness (ln): -1.26 ± 0.055
37 °C
  self-splicing fitness (ln): -0.0902 ± 0.08

## UCGGAGCAAUAUUACGUUGC
30 °C
  self-splicing fitness (ln): -2.44 ± 0.28
37 °C
  self-splicing fitness (ln): -1.78 ± 0.42

## GUGGAGCAAUAUUACGGGGG
30 °C
  self-splicing fitness (ln): -3.36 ± 0.44

## CUUAAGCAAUAUUACGCACU
30 °C
  self-splicing fitness (ln): -2.93 ± 0.17
37 °C
  self-splicing fitness (ln): -1.53 ± 0.17

## UUAGAGCAAUAUUACGGGGC
30 °C
  self-splicing fitness (ln): -3.24 ± 0.44

## CGUCAGCAAUAUUACGUGGU
30 °C
  self-splicing fitness (ln): -3.59 ± 0.12
37 °C
  self-splicing fitness (ln): -2.5 ± 0.13

## GAUGAGCAAUAUUACGCCGG
37 °C
  self-splicing fitness (ln): -2.46 ± 0.45

## GAGUAGCAAUAUUACGUCAU
30 °C
  self-splicing fitness (ln): -2.58 ± 0.13
37 °C
  self-splicing fitness (ln): -1.47 ± 0.13

## AUACAGCAAUAUUACGACAU
30 °C
  self-splicing fitness (ln): 0.131 ± 0.011
37 °C
  self-splicing fitness (ln): 0.288 ± 0.032

## GAGCAGCAAUAUUACGUCCA
30 °C
  self-splicing fitness (ln): -1.3 ± 0.3
37 °C
  self-splicing fitness (ln): -0.418 ± 0.2

## AAGAAGCAAUAUUACGCACC
30 °C
  self-splicing fitness (ln): -1.11 ± 0.12
37 °C
  self-splicing fitness (ln): -0.644 ± 0.15

## AAGCAGCAAUAUUACGACAG
30 °C
  self-splicing fitness (ln): -3.04 ± 0.13
37 °C
  self-splicing fitness (ln): -1.54 ± 0.12

## UCGCAGCAAUAUUACGGCGG
30 °C
  self-splicing fitness (ln): -3.41 ± 0.17
37 °C
  self-splicing fitness (ln): -2.28 ± 0.21

## UAGAAGCAAUAUUACGCCUG
30 °C
  self-splicing fitness (ln): -0.128 ± 0.091
37 °C
  self-splicing fitness (ln): 0.251 ± 0.12

## AUCAAGCAAUAUUACGAGUU
30 °C
  self-splicing fitness (ln): -1.57 ± 0.081
37 °C
  self-splicing fitness (ln): -1.42 ± 0.097

## AUCUAGCAAUAUUACGUGUA
30 °C
  self-splicing fitness (ln): -2.44 ± 0.12
37 °C
  self-splicing fitness (ln): -1.31 ± 0.11

## GCAGAGCAAUAUUACGGGUU
30 °C
  self-splicing fitness (ln): -3.83 ± 0.3
37 °C
  self-splicing fitness (ln): -2.6 ± 0.3

## AUCUAGCAAUAUUACGCCAA
37 °C
  self-splicing fitness (ln): -0.995 ± 0.48
